Assays:
[1] = target: T1, Cam1 (fission yeast calmodulin), amino-terminally acetylated (S. pombe, UniProt P05933 1-150, amino-terminal (Nt) acetylation); test: FRET; first site (Kd1; <0.1 uM)
[2] = target: T1, Cam1 (fission yeast calmodulin), …; test: FRET
[3] = target: T1, Cam1 (fission yeast calmodulin), …; test: FRET; second site (Kd2)

T1 sequence (P05933 whole entry): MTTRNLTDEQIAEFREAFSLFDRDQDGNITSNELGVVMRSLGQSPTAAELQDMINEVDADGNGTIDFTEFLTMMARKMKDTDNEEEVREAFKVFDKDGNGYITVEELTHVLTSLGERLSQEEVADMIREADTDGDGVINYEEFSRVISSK

Binder | Kd [1] [µM] | Kd [2] [µM] | Kd [3] [µM]
DTMATRIQRAWRSYVRRRSEAAACIQKLWNRNKVNMELERVRNEGTK (domain or fragment) [CyPet-Myo1^IQ12-YPet FRET reporter protein] | 0.04 |  | 
DTMATRIQRAWRSYVRRRSEA (domain or fragment) [CyPet-Myo1^IQ1-YPet FRET reporter protein] |  | 0.06 | 
CyPet-DTMATRIQRAWRSYVRRRDEAAACIQKLWNRNKVNMELERVRNEGTK-YPet (domain or fragment, not fully specified) [CyPet-Myo1^IQ12-S742D-YPet FRET reporter protein] | 0.09 |  | 0.54
